According to the domain aggregation screens of Martell et al. (2025):

Assay: soluble fraction after stress (log2 fold change); higher = more stays soluble; pooled small domains, quantitative proteomics
Conditions: stress: 50 degC
Method in brief: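 Each library was heated to 50°C as a stress step. The libraries, made up of small protein domains, were pooled and analysed at high throughput by quantitative proteomics. The reported value is the base-two logarithm of the fold change in each protein's soluble amount after stress, taken as a measure of aggregation propensity. The higher the value, the more protein stays in solution.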

| Sequence | soluble fraction (log2) |
| --- | --- |
| HMHDHKTRLQELAAQRFGSAPSYLLTADGPAHDRRFHASVEVGGRSFGPGTGKSKKRAEQVAAHIAWDALS | 0.394 |
| HMHDIPDITDLRPLRHTLGLTLAHAAQQLNTTTATISRLERGQHRNDHLATTYRTWLHTHPT | -0.15 |
| HMHDLSQQIVRYLIQQGGSSSLTDKSDPQEIYRTFKVSKKKYKQALGNLYKSKTIVITSGKIELVD | -2.69 |
| HMHDYNTIVGVIEMRDKNIPLTSIRQRYGIGYSGIDLILTRYKDSGLTLKEFLALDPSQAEELIYPPK | -0.622 |
| HMHEHWDGSGFPKHLRGANIPLGARVIAVADTYDSITSSRAYRAGSTHEAAEREMRRVSGTQLDPE | 0.137 |
| HMHEIVDTVLQVKQSVEADPLIAPALKNKEIVFQLNAKGVFQFKNAVIQVASALGISKNTVYMHLRNNK | -1.89 |
| HMHETMGQIIKRLRKERGLTQESLAERLGVTFQAVSKWETDAGMPDVSQIVPLANAFGVRTDVLFGLEGRD | -0.111 |
| HMHEYSRIYQQQWWDNATGADAYHVIHSARSRAAQDPEAARALEYLEEQFRIRYGVRTEDFLGYLHD | -0.411 |
| HMHFENEETFVLPLVREGFSEQQQLEMVDRLLFDANTDNPRWIIDWMASELPSTQRELLLDLEKRLAEVRS | -0.117 |
| HMHFEWNELRKAINDFLAEQNMNEDKQLGPYFIQRDIVVPETGTEIDSKKFSEVFKHKVIMYLFDDAAKQ | -0.0513 |
| HMHGESISVPDLRGQKMERMPAFLADKHLQFKVIDSLFDLEKNPGTVLEQDPAPNSKVKEGRTIYLTVNAQ | -0.022 |
| HMHGQGTYTSPDGTKYVGDWQDEKMHGQGTYTYPDGMKFVGEFKDNKPWNGTGYDKYGNVKATFSNGVGKS | 0.066 |
| HMHGSSSTVPPVKGLSFEQARLTLAENDLTVEISDSIYDRNARPGTVVESWPRAGSVVKQGRQVYVTVTAF | -0.922 |
| HMHHDDHNQQEEIKEKLLAMVADGERHHVTEVRQLDEDWDMVTKVMKELMDEEQLLMDGSYLILSA | -0.0951 |
| HMHHSGLRQSQFDEISRQIRSLLEMESLSLQELKTRMEDVPEEQLTKVVSYLLSEEIIRQENGRLQ | -0.0768 |
| HMHKAVVGPPNARKLAVTYGFKRWPALVFFRDGKYLGAVDGLRLWADLVREADEIMHSEPHYP | -0.166 |
| HMHKFMEQNQDRRLSRMKELIGILSEAAKTYYQESREIMSNFQYDRMYDELLELEKETGVVMAGSPTQKV | -6.44e-05 |
| HMHKKQEVQDSIDAAEEFMRASGVPAELITSKRAYAVKAIYADAVDKGTPDEIVKKDGMIVALISQMRS | 0.267 |
| HMHKLTIEEALNYKTPANAGGPYSGKPFRDIYDQRGKAAVISFAKYYLSKATPEDPMVEVYRTLLDGAMEL | -0.875 |
| HMHKREKSFFETIYDDIPGIGKKRRVQLLSAYPTLDSLKSVTLEELKQIVPEESAKLILEKRDSR | 0.0407 |
| HMHPARITATVRVGEGDLVDIEREAELGGPIHSKGVMILSSFLGARYARTVPLSLSASLVFEQSY | 0.0114 |
| HMHPDALTEREREVLSLLADGLSNREIAARLVLALGTVKWYISVIYSKLGVTRRTQAIARARELHLV | -0.0971 |
| HMHPEETVNLILDAAFRLFLEKGYEHTSIQDIIGQLGGLSKGAIYHHFNSKEDILIAVTDRMTA | -1.81 |
| HMHPEQTLEKIVDISAELFAKKGYEQTSIQDILDATGLSKGGLYHHFKSKEEILEAVMQKRVQY | 0.0883 |
| HMHPFELNTVTEGQLKRLPFLSDLQIRELLEYRSRYGKMLTLYELKNVEAFDLETISLLVPFIYISEI | -1.38 |

| Sequence | soluble fraction (log2) |
| --- | --- |
| HMHPKTPDELLALMSEEQRGQIEQLAKLVLMAVSYSGASYYDAVTTMYPRMSEERRRIITHVLNTASP | -0.652 |
| HMHPLFRVVLAGEPNGVGLDDWLTRHEAELINGPSAIGVLTVKIAMGRRSFETVLDEIRADGETIFVEPV | -2.66 |
| HMHPTDMKLTARLEEGAQFVRTQQLSKAIEIFTEVIKLDQNWAEAWNKRATVFYMMGKFKQSQEDIDKVLA | -0.0571 |
| HMHPTEKNLTSLLADGSFYMNQNKLETAYDTFTKTIELDPSWAEAWNKRATVLYLMGKYELSQADIDQV | -0.0645 |
| HMHPVTGRIGTVTAANGLNLRADSSEYANVVATLGYGVDVTVTGERINGFYPVRVGTLSGYVSADYVSFNS | -0.238 |
| HMHQVHKIDGVKYYLHLVEKGNTLYGISKQYNVSVERIEKANTEALSDGLKENQTLLIPVTSDNKKT | 0.0414 |
| HMHREITGSLAERNGRYTAILNLYDEDGKRRQKSIALGIPVKGNKRKAQAQLEELKRAYSLGLPQ | -0.115 |
| HMHRGTPASIIAAAKQYLTGGQTVELYEREGGPWTFRLRTYLSETPYPEKVRASVEALKPAGVVFLYELQS | -0.207 |
| HMHRIKRRNDTLVSALDSIAGIGAKRKKALLQHFGSVRAIKAVSAEEIAKVEGISPTLANQIFEAL | -0.605 |
| HMHRTMFYLDVDLAEGQSVKMAVHEDDDPGELAARFADEHQLKSRAMEKLRSVIEENVRLHRRNQ | -0.306 |
| HMHRTRNAERTRAAVLKAAAEVLAERGTGASLARIAEVAGVSKSGLLHHFANREQLIVALLED | -0.984 |
| HMHSIFPVIRSTSFPTKSNDGELFITSDHTAETRIYYALDLGNTYRLIDQKVMNEINLTESLVKETARF | -1.9 |
| HMHSILDDIEGIGPARRKALMRHYMNLDAIKSATVEELAAVPSMNEKSAKAVHNFFHQQKKD | 0.242 |
| HMHSKQRDAIFENLRSRKDHPTAEEIYLSLKPAMPAISLATVYRNLAQLENEGLILRLGSGGSARYDGDT | -0.441 |
| HMHSLGDQVFETIKELIVNNTYQPGELLQIDKLAAEFGVSTTPVREALLRLEGLGLVDIERNKAAVVT | -0.112 |
| HMHSPLLDRYLAEVGWRLRHLSGAQREDILAGLREHIADLESAGVAPEEIVARLGSPESVADAAAGEF | -0.334 |
| HMHSPTFYVHVVGQVKVPGVYELEVGSRLFDAVIAAGGFKDDADQASVNLARPLSDGEQIVVLKLGDQ | -0.251 |
| HMHTADDFKQLAKQTSNGQLRTRYLALYLFKNGETRTQIATYLGVARGSVNTWVSNYLAHGLEGLQSKP | -2.65 |
| HMHTSEDLEKLLTRYFQSHESINRQQFEQLSGFTRTTASRRLKALVEAGKLKNIGLHHFPVYKPTEGNF | -0.354 |
| HMHVGVWIMNEKGEILLEQRASNKKVDPNKWARIGGHVDAGEKPIQAIQREILEEIGVKIPLENFIVLET | -0.335 |
| HMHVLAVDEALHKLTELNELHAKIVEMRFFSGMTVQEVADELGVSKRKIESEWTMIKAWLRKELN | -0.665 |
| HMHVSLSGKIHSELRKLILNGELKAGERLPSEPDLAHELGVSRNSLREAIGLLQREGLLLKKHGIGTFVTD | -0.829 |
| HMHVYQSLVTDRVVPGGGYRTTEAILSTEAWRNTLLEQAKRELIGVRNKYASLTELAKVWTAIDTVT | -0.586 |
| HMHYALTVDFPAALEARIDPAHRAALRGVLAHDPRPSYQSDPERLYGVAFAGKNVKFTVEDGVLTVRKIEE | 0.0218 |
| HMHYKLIIFENHTKSTSLDITPEQARQILGVTDYTPEQYEILAEITNRPASYFMDDLVDYYVD | -2.39 |

| Sequence | soluble fraction (log2) |
| --- | --- |
| HMHYNMNYLENLTKTELFDLAKNKFGLTYAEMERHLSIPEGGARYAIKAEHSKYGSDIKKYLVEFLLE | -1.18 |
| HMIADPAKPDWTTILAPVTTGTTVTHKTFGQGTVTKLDKTKKYLTVSFAAGQKNFVFPNAFIDGFLK | 0.203 |
| HMIADSSSIHQDAKQQLHSYLRTNIQPLMRAGKQLDLKDILHHVTIRKPKLVQQLGMKQVQHMVQVLLD | 0.224 |
| HMIAGHLQEKKGFFYIVLSYPDAAGKRKTKWFPTKLSVKGNKKKAEVMLMDARKTFVPPETPL | -0.501 |
| HMIAITVGSKVRVKAGATFSDGTKPFTEVYNTVYDVQLLSRNGKEARIGIGEQWTGWMYISDLYPADQ | -0.359 |
| HMIAPQISSGKVNTKELNVRSGPATTFGIVKKLPLNAMVGIFEEKNGWFRIATGQWVSKTYVDL | -1.5 |
| HMIAVLEEGSRFRAINDISGKPFGPEMIIKNGQVIAAGKKILTKPKKLIGKKEGTKFNISGKEYVIKDI | -0.614 |
| HMIAWNFDTMKESLSEMERVDYQEFIKAFLSLELSISDRTILNQVYQDYMDEDDLSLISDELRV | 0.0819 |
| HMIDDNTIIQIGDSYSKSIRLLGEPIELKNRSLNQKSYFMAVYDFKGRRYRLFFENDVLFDILRD | -1.86 |
| HMIDELLDPTHRIMVRHPRVDYVSPGFLIGPDKDVILWGFTGGIIARLFDFLGWTRPWDQSHVQDLPPYML | -0.202 |
| HMIDENILSEEIKHYIETNNYAKDDKLPSERSLASLFNVSRALVRKSLISLVDVNYLYVKDKSGYYING | -0.0735 |
| HMIDEPENLIQEDKMVNIIYDLALLEGVKTFNSSNFQSVKSNDFVYKKYKIDSLQFAKSTQFYASDINR | -0.168 |
| HMIDFDEIEILSSSKIEKIENSEYLKSSIFEKDSNQYIYRLSFENRDQLKNFKKEIEDIDQIKKIDVTY | 0.103 |
| HMIDHKVIRSFRQKRNMTLQELAQKANLSVSYLSEIELGKKQPSLETLDKLSKALNISLEGL | -0.116 |
| HMIDHLPPQRAAVLAFLQRELVAGRSPSLAEIALAFGFASRNAAQKHVQALVADGLLEQATGRSRGLRLPG | -1.67 |
| HMIDIGSKIKKLRSKKSIEIGKKYTGAMLANELGISRSYLGDIESGRTVPNEIILGKIADIFDVDIYELIG | -0.256 |
| HMIDLPEAFIQQLKEAVDVGDVTGLRELLGQLRRRYPQQSALSDEAERLLREFDFERLAQLFEGLD | -1.42 |
| HMIDNFFTIRFNYSKINEVIRLLKEFNGEIFNKNYDKNEYIIEFSIPKKDAALLISKLKNITGLTIEQ | -0.00473 |
| HMIDQIAEQLQQRLAVDTAFATIQRDYPDVIANKDIELLTAIKVNQKIAEGASRASAMLESAKEVYETL | -0.0203 |
| HMIDRPLTLVEDYERFAGELAKITLRFMLDGRKRFNGRLAGFDEDGKIVLETSFGRFAFSFDEIDSARI | -2.68 |
| HMIDSVFASYRQVALDDELWDKVRNGAVLPKVELFEVMDGPVLFTYQSKIVAMYEPHPTKAGYIKPRKMFL | -1.18 |
| HMIDTTKILPGQEFKNMQELSVALTGQKMPAGKGYVLQQEKFKLYFSWKKITGTHKLIIDEIYEEPKT | -3.44 |
| HMIDYIKYTVDGKTYELINNWDGTWSRELEAPLVAGRYDLLLEISQNGLVTYIDSSDPRYEFYLDVI | -3.12 |
| HMIEESTVPDLKGKSQEDAIKLLEDANLKYQIVEEESKKIEAGYVISQETDANKKVNAGDTVIIHVST | 0.295 |
| HMIEFYTMQDMFYFKLTGDNTSRERREALGKILGIGYGNATQMVSRLNNYGISKEEFSKAIEEIEKQLEA | -2.8 |
